The values that follow come from US20150344570A1 (published 2015).

The target in test [1] is T1, FcγRIIb extracellular domain with C-terminal His tag (human, UniProt P31994 43-217).
T1 construct: extracellular domain; expressed in FreeStyle293 cells; analyte in Biacore; also called FcgRIIb; 2b
T1 sequence (looked up): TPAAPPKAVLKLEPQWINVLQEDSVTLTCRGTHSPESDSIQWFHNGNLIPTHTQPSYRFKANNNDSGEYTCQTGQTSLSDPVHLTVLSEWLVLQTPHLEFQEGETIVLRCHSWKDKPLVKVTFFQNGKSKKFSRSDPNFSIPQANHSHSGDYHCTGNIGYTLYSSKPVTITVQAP
As to the kind of experiment: SPR (Biacore), captured antibody, FcγR as analyte; relative binding.

Test [2] has as its target T2, FcγRIa extracellular domain with C-terminal His tag (human, UniProt P12314 16-292).
T2 construct: extracellular domain; expressed in FreeStyle293 cells; analyte in Biacore; also called FcgRI; 1a
Described as above.
T2 sequence (P12314 16-292): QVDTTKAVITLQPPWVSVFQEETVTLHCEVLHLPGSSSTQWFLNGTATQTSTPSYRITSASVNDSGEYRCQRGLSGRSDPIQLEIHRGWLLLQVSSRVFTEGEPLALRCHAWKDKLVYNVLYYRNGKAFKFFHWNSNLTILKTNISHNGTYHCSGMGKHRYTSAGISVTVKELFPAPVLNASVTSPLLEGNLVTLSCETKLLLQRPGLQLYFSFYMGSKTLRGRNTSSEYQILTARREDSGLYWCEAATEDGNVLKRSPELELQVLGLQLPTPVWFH

Test [3] has as its target T2, FcγRIa extracellular domain with …. As to the kind of experiment: SPR (Biacore); He/Con_1a divided by He/Con_2b (FcγRIIb as reference). On the technique in general: SPR reads the build-up and loss of mass on a sensor chip optically.
Test [4] addresses T3, FcγRIa extracellular domain with C-terminal His tag (human, UniProt P12314 16-292).
T3 construct: extracellular domain; soluble analyte in Biacore; also called FcgRI; not shown: His tag at the C terminus
Kind of test: SPR; He/Con_1a divided by He/Con_2b (FcγRIa against FcγRIIb). The procedure:
The heterodimerized antibodies He Abs in which one of the H chains was introduced with an alteration were assayed for their binding activities to each activating FcγR and inhibitory FcγR according to the method described in Example 4. […] The activating FcγRs in FIGS. 26, 27, 28, and 29 are FcγRIa, FcγRIIa (R), FcγRIIa (H), and FcγRIIIa, respectively.
Analysis of interaction between objective antibody and the FcγR was carried out using Biacore T100 (GE Healthcare). HBS-EP+ (GE Healthcare) was used as the running buffer, and the measurement temperature was set to 25° C. Chips produced by immobilizing the antigen peptide by the amine coupling method to a Series S Sencor Chip CM5 (GE Healthcare), or alternatively, chips produced by allowing preliminarily biotinylated antigen peptides to interact with and immobilize onto a Series S Sensor Chip SA (certified) (GE Healthcare) were used. Antibodies of interest were captured onto an antigen peptide-immobilized chip, and allowed to interact to each FcγR diluted with running buffer. To regenerate and repeatedly use the chip, the antibodies captured on the chip were washed off by reacting 10 mM glycine-HCl, pH 1.5.
T3 sequence (P12314 16-292): as above

Test [5] has as its target T3, FcγRIa extracellular domain with …. Kind of test: SPR, binding relative to GpH7-A5/GpH7-B3/GpL16-k0 = 100.
Test [6] concerns the target T4, FcγRIIb extracellular domain with C-terminal His tag (human, UniProt P31994 43-217).
T4 construct: extracellular domain; soluble analyte in Biacore; also called FcgRIIb; not shown: His tag at the C terminus
T4 sequence (looked up): T1 sequence (looked up)
The description is as above.

B1: GpH7-A5/GpH7-B3 variant V266_11K/GpL16-k0 (antibody, human IgG1, kappa)
heavy 1: not shown
heavy 2: not shown
light: DIVMTQSPLSLPVTPGEPASISCQASESLVHSNRNTYLHWYLQKPGQSPQLLIYKVSNRFSGVPDRFSGSGSGTDFTLKISRVEAEDVGVYYCSQNTHVPPTFGQGTKVEIERTVAAPSVFIFPPSDEQLKSGTASVVCLLNNFYPREAKVQWKVDNALQSGNSQESVTEQDSKDSTYSLSSTLTLSKADYEKHKVYACEVTHQGLSSPVTKSFNRGEC
notes: He Ab; IgG1, mutation in one H chain
In the case of B1, the He/Con_2b in test [1] is 1 % of HeCon Ab (GpH7-A5/GpH7-B3/GpL16-k0 = 100). In test [2], the He/Con_1a was 64.4 % of HeCon Ab (GpH7-A5/GpH7-B3/GpL16-k0 = 100). Also, the “He_1a/2b (Ia/IIb)” value in test [3] worked out at 63.5 ratio.

B2: GpH7-A5/GpH7-B3 variant D270_14T/GpL16-k0 (antibody, human IgG1, kappa)
heavy 1: not shown
heavy 2: not shown
light: B1 light
notes: change in the GpH7-B3 H chain only; also called He Ab
Take B2: the “He_1a/2b (Ia/IIb)” value in test [4] is 1.22 ratio. Besides, in test [5], the He/Con_1a was 70.6 % of control. For the same molecule, in test [6], the He/Con_2b is 57.8 % of control.

B3: GpH7-A5/GpH7-B3 variant V266_13S/GpL16-k0 (antibody, human IgG1, kappa)
heavy 1: not shown
heavy 2: not shown
light: B1 light
notes: as for B1
For the molecule B3, in test [1], the He/Con_2b is 54.4 % of HeCon Ab (GpH7-A5/GpH7-B3/GpL16-k0 = 100). Further, the He/Con_1a in test [2] was 90.6 % of HeCon Ab (GpH7-A5/GpH7-B3/GpL16-k0 = 100). The “He_1a/2b (Ia/IIb)” value in test [3] is 1.67 ratio.

B4: GpH7-A5/GpH7-B3 variant V266_01G/GpL16-k0 (antibody, human IgG1, kappa)
heavy 1: not shown
heavy 2: not shown
light: B1 light
notes: as for B1
Regarding B4, the He/Con_2b in test [1] is 51.5 % of HeCon Ab (GpH7-A5/GpH7-B3/GpL16-k0 = 100). Also, the He/Con_1a in test [2] is 91.3 % of HeCon Ab (GpH7-A5/GpH7-B3/GpL16-k0 = 100). Besides, in test [3], the “He_1a/2b (Ia/IIb)” value stood at 1.77 ratio.

B5: GpH7-A5/GpH7-B3 variant S239_20W/GpL16-k0 (antibody, human IgG1, kappa)
heavy 1: not shown
heavy 2: not shown
light: B1 light
notes: as for B1
For the molecule B5, the He/Con_2b in test [1] was 45.1 % of HeCon Ab (GpH7-A5/GpH7-B3/GpL16-k0 = 100). Further, the He/Con_1a in test [2] is 92.7 % of HeCon Ab (GpH7-A5/GpH7-B3/GpL16-k0 = 100). In addition, the “He_1a/2b (Ia/IIb)” value in test [3] is 2.06 ratio.

B6: GpH7-A5/GpH7-B3 variant D270_12R/GpL16-k0 (antibody, human IgG1, kappa)
heavy 1: not shown
heavy 2: not shown
light: B1 light
notes: as for B2
For the molecule B6, the “He_1a/2b (Ia/IIb)” value in test [4] came out at 3.63 ratio. Moreover, the He/Con_1a in test [5] was 66.3 % of control. Also, the He/Con_2b in test [6] was 18.3 % of control.

B7: GpH7-A5/GpH7-B3 variant D265_19Q/GpL16-k0 (antibody, human IgG1, kappa)
heavy 1: not shown
heavy 2: not shown
light: B1 light
notes: as for B1
As for B7, in test [1], the He/Con_2b is 33.4 % of HeCon Ab (GpH7-A5/GpH7-B3/GpL16-k0 = 100). For the same molecule, the He/Con_1a in test [2] is 88.8 % of HeCon Ab (GpH7-A5/GpH7-B3/GpL16-k0 = 100). In addition, the “He_1a/2b (Ia/IIb)” value in test [3] came out at 2.66 ratio.

B8: GpH7-A5/GpH7-B3 variant D270_03V/GpL16-k0 (antibody, human IgG1, kappa)
heavy 1: not shown
heavy 2: not shown
light: B1 light
notes: as for B2
Turning to B8, the “He_1a/2b (Ia/IIb)” value in test [4] turned out to be 1.97 ratio. Moreover, the He/Con_1a in test [5] is 77.9 % of control. Further, in test [6], the He/Con_2b was 39.5 % of control.

B9: GpH7-A5/GpH7-B3 variant D270_11K/GpL16-k0 (antibody, human IgG1, kappa)
heavy 1: not shown
heavy 2: not shown
light: B1 light
notes: as for B2
On to B9, for which the “He_1a/2b (Ia/IIb)” value in test [4] was found to be 2.88 ratio. Moreover, the He/Con_1a in test [5] is 58.4 % of control. Also, the He/Con_2b in test [6] was 20.3 % of control.

B10: GpH7-A5/GpH7-B3 variant V266_09D/GpL16-k0 (antibody, human IgG1, kappa)
heavy 1: not shown
heavy 2: not shown
light: B1 light
notes: as for B1
On to B10, for which the He/Con_2b in test [1] is 10.1 % of HeCon Ab (GpH7-A5/GpH7-B3/GpL16-k0 = 100). The He/Con_1a in test [2] is 79.3 % of HeCon Ab (GpH7-A5/GpH7-B3/GpL16-k0 = 100). Besides, the “He_1a/2b (Ia/IIb)” value in test [3] worked out at 7.88 ratio.

B11: GpH7-A5/GpH7-B3 variant D270_18N/GpL16-k0 (antibody, human IgG1, kappa)
heavy 1: not shown
heavy 2: not shown
light: B1 light
notes: as for B2
In the case of B11, the “He_1a/2b (Ia/IIb)” value in test [4] came to 1.68 ratio. Besides, the He/Con_1a in test [5] is 67.8 % of control. Further, the He/Con_2b in test [6] was 40.3 % of control.

B12: GpH7-A5/GpH7-B3 variant V266_04F/GpL16-k0 (antibody, human IgG1, kappa)
heavy 1: not shown
heavy 2: not shown
light: B1 light
notes: as for B1
On to B12, for which the He/Con_2b in test [1] is 57.6 % of HeCon Ab (GpH7-A5/GpH7-B3/GpL16-k0 = 100). Besides, the He/Con_1a in test [2] is 96.7 % of HeCon Ab (GpH7-A5/GpH7-B3/GpL16-k0 = 100). For the same molecule, in test [3], the “He_1a/2b (Ia/IIb)” value turned out to be 1.68 ratio.

B13: GpH7-A5/GpH7-B3 variant V266_10E/GpL16-k0 (antibody, human IgG1, kappa)
heavy 1: not shown
heavy 2: not shown
light: B1 light
notes: as for B1
For the molecule B13, in test [1], the He/Con_2b is 15.2 % of HeCon Ab (GpH7-A5/GpH7-B3/GpL16-k0 = 100). Moreover, in test [2], the He/Con_1a is 81.9 % of HeCon Ab (GpH7-A5/GpH7-B3/GpL16-k0 = 100). Besides, the “He_1a/2b (Ia/IIb)” value in test [3] came out at 5.37 ratio.

B14: GpH7-A5/GpH7-B3 variant D270_13S/GpL16-k0 (antibody, human IgG1, kappa)
heavy 1: not shown
heavy 2: not shown
light: B1 light
notes: as for B2
As for B14, in test [4], the “He_1a/2b (Ia/IIb)” value was 1.7 ratio. Moreover, in test [5], the He/Con_1a was 75.3 % of control. Also, the He/Con_2b in test [6] is 44.2 % of control.

B15: GpH7-A5/GpH7-B3 variant D270_07I/GpL16-k0 (antibody, human IgG1, kappa)
heavy 1: not shown
heavy 2: not shown
light: B1 light
notes: as for B2
As for B15, the “He_1a/2b (Ia/IIb)” value in test [4] stood at 1.8 ratio. Also, in test [5], the He/Con_1a is 74.6 % of control. Besides, the He/Con_2b in test [6] is 41.5 % of control.
